Paper PMC11142708

Molecular target: microtubule
Assay: optical trap binding-time assay; kinesin held by its C-terminal His tag on a polystyrene bead (0.56 um, streptavidin with biotinylated penta-His antibody), at most one motor per bead, trapped 0, 20, 40 or 60 nm from a surface-attached microtubule; binding time = time from unbinding to the next detectable bead displacement (>15 nm); room temperature; motility buffer (80 mM Pipes pH 6.9, 50 mM CH3COOK, 4 mM MgSO4, 1 mM DTT, 1 mM EGTA, 10 uM taxol, 1 mg/mL casein) with 2 mM ATP and an oxygen-scavenging system; the rates of Table 1 are fits of Brownian dynamics models to the mean binding times of all three motor lengths together

## DK-406-His (Drosophila Kinesin aa 1-406; His tag at c-term) (from UniProt P17210 1-406) (domain or fragment)
  binding time (plateau at close distances): 1 s
  koff^ADP,fast (rate of the weak-to-strong binding transition on the microtubule; diffusion with ADP state model): 2.12 s⁻¹
  koff^MT (unbinding from the weakly bound state, at zero force; diffusion with ADP state model): 0.2 s⁻¹
  kon^MT (microscopic first-order binding rate when the head is within 5 nm of the microtubule; diffusion with ADP state model): 70.7 s⁻¹
  kon^MT (microscopic first-order binding rate; simple diffusion model): 80.6 s⁻¹

## DK-560-His (Kinesin-1, aa 1-560; His tag at c-term) (from UniProt P17210 1-560) (domain or fragment)
  binding time (plateau at close distances): 1 s
  koff^ADP,fast (rate of the weak-to-strong binding transition on the microtubule; diffusion with ADP state model): 2.12 s⁻¹
  koff^MT (unbinding from the weakly bound state, at zero force; diffusion with ADP state model): 0.2 s⁻¹
  kon^MT (microscopic first-order binding rate when the head is within 5 nm of the microtubule; diffusion with ADP state model): 70.7 s⁻¹
  kon^MT (microscopic first-order binding rate; simple diffusion model): 80.6 s⁻¹

## DK-746-His (Drosophila Kinesin aa 1-746; His tag at c-term) (from UniProt P17210 1-746) (domain or fragment)
  binding time (plateau at close distances): 1 s
  koff^ADP,fast (rate of the weak-to-strong binding transition on the microtubule; diffusion with ADP state model): 2.12 s⁻¹
  koff^MT (unbinding from the weakly bound state, at zero force; diffusion with ADP state model): 0.2 s⁻¹
  kon^MT (microscopic first-order binding rate when the head is within 5 nm of the microtubule; diffusion with ADP state model): 70.7 s⁻¹
  kon^MT (microscopic first-order binding rate; simple diffusion model): 80.6 s⁻¹
